These results are taken from patent US20230037815A1.

For this test, the target named is human CD19 on KILR Raji cells (UniProt P15391). In words: cell-based or functional assay.
Sequence of human CD19 on KILR Raji cells (P15391 20-556 limits assumed): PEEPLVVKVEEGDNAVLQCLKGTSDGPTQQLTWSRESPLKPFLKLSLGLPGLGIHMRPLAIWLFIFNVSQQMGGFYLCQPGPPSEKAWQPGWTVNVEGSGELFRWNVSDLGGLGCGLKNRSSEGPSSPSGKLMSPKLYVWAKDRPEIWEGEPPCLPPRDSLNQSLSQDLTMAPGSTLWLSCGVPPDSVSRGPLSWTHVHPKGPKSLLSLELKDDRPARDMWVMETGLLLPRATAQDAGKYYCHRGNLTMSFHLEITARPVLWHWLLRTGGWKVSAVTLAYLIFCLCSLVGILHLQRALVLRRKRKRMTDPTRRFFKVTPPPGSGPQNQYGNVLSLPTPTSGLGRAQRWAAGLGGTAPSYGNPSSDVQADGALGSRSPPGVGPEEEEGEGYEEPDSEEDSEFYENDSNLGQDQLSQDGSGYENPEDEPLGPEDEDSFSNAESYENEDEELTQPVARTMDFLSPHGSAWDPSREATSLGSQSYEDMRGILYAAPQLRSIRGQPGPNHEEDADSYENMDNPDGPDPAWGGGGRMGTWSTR

For blinatumomab (bispecific antibody), the EC50 (pg/mL) of T cell-redirected killing of KILR Raji cells, +HSA turned out to be 10800 pg/mL and the EC50 (pg/mL) of T cell-redirected killing of KILR Raji cells, -HSA was 2850 pg/mL.
